Experiments:
[1] = target: human vascular endothelial growth factor 165 (hVEGF), E. coli-derived, after tag cleavage (human); assay: SEC; SEC-HPLC, Protein-pak 300SW SEC 7.5 x 300 mm column, 1X PBS pH 7.4, room temperature, 1 mL/min, detection at 280 nm; peaks checked on non-reducing SDS-PAGE
[2] = target: human vascular endothelial growth factor 165 (hVEGF), E. coli-derived, after tag cleavage (human); assay: non-reducing SDS-PAGE; purified hVEGF in sample buffer with SDS, without DTT (non-reducing) against with 100 mM DTT (reducing), tricine SDS-PAGE, Coomassie stain; shows disulfide-linked forms

human vascular endothelial growth factor 165 (hVEGF), E. coli-derived, after tag cleavage (ligand)
stoichiometry N [1]: 2 | stoichiometry N [2]: 2

— PMC4883780
